Reference: PMC6134688, “Identification of a novel site of interaction between ataxin-3 and the amyloid aggregation inhibitor polyglutamine binding peptide 1” (European Journal of Mass Spectrometry (Chichester, England), 2017)
Where no end group is shown, it is not given here.

T1: MBP-183-221, maltose binding protein linked to residues 183-221 of ataxin-3 (UniProt P54252 183-221)
T1 construct: printed mass 49,207.6 Da; MBP drawn from PDB 1LLS; not shown: MBP, N-terminal, kept
T1 chain (looked up): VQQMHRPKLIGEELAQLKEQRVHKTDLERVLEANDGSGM

B1: polyQ binding peptide 1 (peptide)
peptide: Ac-SNWKWWPGIFD
notes: printed mass 1477.6 Da; also called QBP1; source: synthetic peptide, bought: Bio-Synthesis Inc
B2: JD+, the Josephin domain plus residues 183-221 (ataxin-3 residues 1-221) (domain or fragment, UniProt P54252 1-221, looked up)
chain: MESIFHEKQEGSLCAQHCLNNLLQGEYFSPVELSSIAHQLDEEERMRMAEGGVTSEDYRTFLQQPSGNMDDSGFFSIQVISNALKVWGLELILFNSPEYQRLRIDPINERSFICNYKEHWFTVRKLGKQWFNLNSLLTGPELISDTYLALFLAQLQQEGYSIFVVKGDLPDCEADQLLQMIRVQQMHRPKLIGEELAQLKEQRVHKTDLERVLEANDGSGM
notes: ataxin-3 residues 1-221, made by a stop codon in the gene encoding ataxin-3 14Q; printed mass 27,704.4 Da; also called ataxin-3 1-221

Legend:
ataxin-3 14Q [1] = target: ataxin-3 14Q (UniProt P54252); test: native MS; nanoESI-MS; 16-fold excess of QBP1 over ataxin-3 14Q (Supplementary Figure 1)
ataxin-3 14Q [2] = target: ataxin-3 14Q (UniProt P54252); test: native MS; nanoESI-MS; 10 μM protein and 50 μM QBP1 (five-fold molar excess) in 250 mM ammonium hydrogen carbonate, 1 mM dithiothreitol, pH 7.8
ataxin-3 78Q [3] = target: ataxin-3 78Q (UniProt P54252); test: as above
ataxin-3 14Q [4] = target: ataxin-3 14Q (UniProt P54252); test: 1H T1rho NMR (signal of the peptide); 50 μM QBP1 and 10 μM protein in 250 mM ammonium hydrogen carbonate, 10% (v/v) D2O; 100 ms spin-lock; methyl region 0.45-0.75 ppm integrated
ataxin-3 78Q [5] = target: ataxin-3 78Q (UniProt P54252); test: as above
[6] = target: T1, MBP-183-221, maltose binding protein …; test: native MS; nanoESI-MS; equimolar QBP1 (for the TEV-cleaved MBP fusion the ratio is not told); settings: both partners purified
[7] = target: T2, JDU1, the Josephin domain plus the first UIM (ataxin-3 residues 1-241) (UniProt P54252 1-241); test: native MS; nanoESI-MS; 10 μM protein and 50 μM QBP1 (five-fold molar excess) in 250 mM ammonium hydrogen carbonate, 1 mM dithiothreitol, pH 7.8; settings: both partners purified
T2 construct: ataxin-3 residues 1-241, made by a stop codon in the gene encoding ataxin-3 14Q; printed mass 30,046.7 Da

[8] = target: B2; test: as above; settings: both partners purified
[9] = target: the molecule itself; test: as above

Row | Binder | stoichiometry N (ataxin-3 14Q [1]) | stoichiometry N (ataxin-3 14Q [2]) | stoichiometry N (ataxin-3 78Q [3]) | loss of QBP1 signal in T1rho NMR (ataxin-3 14Q [4]) [%] | loss of QBP1 signal in T1rho NMR (ataxin-3 78Q [5]) [%] | stoichiometry N [6] | stoichiometry N [7] | stoichiometry N [8] | stoichiometry N [9]
1 | B1 | 1 | 1 | 1 | 22 | 24 | 1 | 1 | 1 | 
2 | B2 |  |  |  |  |  |  |  |  | 2
